Values after ≈ are worked out from the molar mass of the structure shown. Like-named read-outs stand apart in the source and are kept apart here. Numbered stars: 1 amine (or outer) side, 2 acyl side, 3 side chain; on linkers, the order of the positions; unused ones are H or OH. Bridge positions count the residues as written; N and C are the ends. Square brackets hold non-standard residues; d marks the D form. Primed or numbered codes have the meaning given here. Peptide text beside a SMILES is read from it. * marks the point of attachment. MB(10) = Monomer B = PyrS, pyrrolidine stapling residue with allyl carbamate, (S)-3-amino-1-(allyloxycarbonyl)pyrrolidine-3-carboxylic acid, C=CCOC(=O)N1CC[C@@](N[*:1])(C(=O)[*:2])C1; MB(4) = Monomer B (PyrS), N-Alloc pyrrolidine stapling residue, (S)-3-amino-1-(allyloxycarbonyl)pyrrolidine-3-carboxylic acid, C=CCOC(=O)N1CC[C@@](N[*:1])(C(=O)[*:2])C1; MB(6) = Monomer B (PyrS), N-Alloc pyrrolidine stapling residue, forms carbamate staple with R8 by olefin metathesis; R7″ = stapling residue, (R)-2-(6-heptenyl)alanine (drawn only), C=CCCCCC[C@@](C)(N[*:1])C(=O)[*:2]; MB = Monomer B = PyrS, Alloc-pyrrolidine stapling residue (allyl carbamate on pyrrolidine N); MB(13) = Monomer B (PyrS), pyrrolidine stapling residue bearing Alloc; R7 = (R)-2-(6-heptenyl)alanine, C=CCCCCC[C@@](C)(N[*:1])C(=O)[*:2]; MB(5) = Monomer B (PyrS), N-Alloc pyrrolidine stapling residue; dαMeDab(Me) = CN(CC[C@@](C)(N[*:1])C(=O)[*:2])[*:3]; X1 = O=C([C@]1(N[*:1])CCN([*:3])C1)[*:2]; αMeW = C[C@](N)(Cc1c[nH]c2ccccc12)C(=O)O; Phe(4-F) = N[C@@H](Cc1ccc(F)cc1)C(=O)O; Phe(4-Me) = Cc1ccc(C[C@H](N)C(=O)O)cc1; 1Nal = N[C@@H](Cc1cccc2ccccc12)C(=O)O; Met(O2) = CS(=O)(=O)CC[C@H](N)C(=O)O; X2 = O=C(OCC=CCOC(=O)[*:2])[*:1]; 2Pal = N[C@@H](Cc1ccccn1)C(=O)O; 4Pal = N[C@@H](Cc1ccncc1)C(=O)O; R8 = C=CCCCCCC[C@@](C)(N)C(=O)O; αMeL = CC(C)C[C@](C)(N)C(=O)O; Lauroyl = CCCCCCCCCCCC(=O)*; Octanoyl = CCCCCCCC(=O)*; Aib = CC(C)(N)C(=O)O
T1: full-length beta-catenin (UniProt P35222 2-781, limits assumed)
T1 construct: mature; also called full-length ß-Catenin; β-catenin
T1 sequence (looked up): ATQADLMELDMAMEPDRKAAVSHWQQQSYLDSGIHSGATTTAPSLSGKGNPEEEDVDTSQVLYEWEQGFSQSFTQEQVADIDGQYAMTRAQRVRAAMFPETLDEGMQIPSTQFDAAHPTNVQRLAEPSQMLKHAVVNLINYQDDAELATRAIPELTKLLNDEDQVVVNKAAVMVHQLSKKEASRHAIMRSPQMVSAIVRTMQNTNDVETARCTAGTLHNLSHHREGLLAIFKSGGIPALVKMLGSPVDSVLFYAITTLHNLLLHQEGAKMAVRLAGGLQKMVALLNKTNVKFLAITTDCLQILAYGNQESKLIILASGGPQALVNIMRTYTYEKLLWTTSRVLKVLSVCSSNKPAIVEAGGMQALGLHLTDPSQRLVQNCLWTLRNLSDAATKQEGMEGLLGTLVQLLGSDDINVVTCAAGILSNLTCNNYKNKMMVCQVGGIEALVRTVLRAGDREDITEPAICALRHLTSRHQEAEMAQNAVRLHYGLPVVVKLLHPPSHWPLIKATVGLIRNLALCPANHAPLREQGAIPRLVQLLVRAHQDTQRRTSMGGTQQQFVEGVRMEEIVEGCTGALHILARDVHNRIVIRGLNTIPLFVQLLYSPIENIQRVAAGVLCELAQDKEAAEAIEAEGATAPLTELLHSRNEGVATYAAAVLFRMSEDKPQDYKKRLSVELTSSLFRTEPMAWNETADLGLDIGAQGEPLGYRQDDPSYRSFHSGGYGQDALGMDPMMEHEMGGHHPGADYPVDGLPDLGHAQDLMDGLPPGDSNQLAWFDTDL


Key:
[1] = Solubility in DPBS (A280 of supernatant); type: physicochemical; conditions: for solubility: Table 2, read-out: Solubility
Method: Suitable assays for assessing solubility are widely known in the art and can be utilized in accordance with the present disclosure. In some embodiments, in an exemplary protocol, dried peptide was reconstituted in DPBS (DPBS, 1×, cell culture grade, Sigma D8537) in triplicate, vortexed, sonicated and then centrifuged. Absorbance of the supernatant was measured at A280 (Nanodrop 2000) and the concentration was determined using the extinction coefficient for tryptophan. Exemplary solubility data are presented in, e.g., Table 2.

full-length beta-catenin [2] = molecular target: T1, full-length beta-catenin; test: competition FP; NB = no binding detected
Method: (§1) In some embodiments, a competition fluorescence polarization assay is used to assess binding of provided compounds to beta-catenin. In an exemplary procedure, solutions of provided compounds, e.g., provided stapled peptides, were prepared in a buffer (e.g., 50 mM Tris pH 8.0, 250 mM NaCl, 2% glycerol, 0.5 mM EDTA, 0.02% w/v sodium azide) using a 3-fold serial dilution from 5 µM. Probe solution (15 nM full-length ß-Catenin, 20 nM FITC labeled peptide in buffer) was prepared and incubated for a period of time, e.g., 5 minutes, and the a volume, e.g., 40 µL per well plated in suitable plate, e.g., a black polystyrene 384-well plate (Corning). Equal volume of the serial diluted peptide was added to the plate and incubated protected from light for 15 minutes prior to read. Reads were performed on a Spectramax M5 (Molecular Devices) in duplicate. Suitable probe was FITC-PEG1-PQ-S5-ILD-S5-HVRRVWR (SEQ ID NO: 1) (hydrocarbon staple formed by two S5 via olefin metathesis) and/or FITC-bA-PQ-S5-ILD-S5-HVRRVWR (SEQ ID NO: 3) (hydrocarbon staple formed by two S5 via olefin metathesis). […] Another peptide, FPO217c (Ac-AR_8ILDAHIM$B5$RVW (SEQ ID NO: 280), with N-terminal proline removed and valine replaced with isoleucine compared to FP0025c) was prepared.

full-length beta-catenin [3] = molecular target: T1, full-length beta-catenin; test: competition FP, grade of FP EC50 (+: 500-5000 nM)
Method: as §1

Molecule	FP EC50 (full-length beta-catenin [3]) [µM]	further results
CC[C@H](C)[C@@H]1NC(=O)[C@H](Cc2c[nH]cn2)NC(=O)[C@H](C)NC(=O)[C@H](CC(=O)O)NC(=O)[C@H](CC(C)C)NC(=O)[C@H]([C@@H](C)CC)NC(=O)[C@](C)(NC(=O)[C@H](C)NC(C)=O)CCCCCCC=CCOC(=O)N2CC[C@@](C(=O)N[C@@H](CCCNC(=N)N)C(=O)N[C@H](C(=O)N[C@@H](Cc3c[nH]c4ccccc34)C(N)=O)C(C)C)(C2)NC1=O (single isomer, unassigned) [FPO217c, Ac-AR8ILDAHIMBRVW (SEQ ID NO: 280)]	–	solubility thermodynamic ([1]; DPBS, read-out: solubility): 7 µM (≈ 11.1 µg/mL)
CCCCCCCC(=O)N[C@@H](C)C(=O)N[C@]1(C)CCN(C)C(=O)OCC=CCOC(=O)N2CC[C@@](C(=O)N[C@@H](CCCNC(=N)N)C(=O)N[C@H](C(=O)N[C@@H](Cc3c[nH]c4ccccc34)C(N)=O)C(C)C)(C2)NC(=O)[C@H]([C@@H](C)CC)NC(=O)[C@H](Cc2c[nH]cn2)NC(=O)[C@H](C)NC(=O)[C@H](CC(=O)O)NC(=O)[C@H](CC(C)C)NC(=O)[C@H]([C@@H](C)CC)NC1=O [FP0597c_c8, Oct-A-MG-I-L-D-A-H-I-MB-R-V-W-NH2] (Octanoyl-A[dαMeDab(Me)]ILDAHI[X1]RVW-NH2; linker 2-9 via X2)	–	solubility [1]: 2 µM (≈ 3.4 µg/mL)
CCCCCCCCCCCC(=O)N[C@@H](C)C(=O)N[C@]1(C)CCN(C)C(=O)OCC=CCOC(=O)N2CC[C@@](C(=O)N[C@@H](CCCNC(=N)N)C(=O)N[C@H](C(=O)N[C@@H](Cc3c[nH]c4ccccc34)C(N)=O)C(C)C)(C2)NC(=O)[C@H]([C@@H](C)CC)NC(=O)[C@H](Cc2c[nH]cn2)NC(=O)[C@H](C)NC(=O)[C@H](CC(=O)O)NC(=O)[C@H](CC(C)C)NC(=O)[C@H]([C@@H](C)CC)NC1=O [FP0597c_c12, Dodec-A-MG-I-L-D-A-H-I-MB-R-V-W-NH2] (Lauroyl-A[dαMeDab(Me)]ILDAHI[X1]RVW-NH2; linker 2-9 via X2)	–	solubility ([1]; DPBS): 4 µM (≈ 7.02 µg/mL)
Ac-A[R8]ILDA[2Pal]I[MB(6)][Aib]VW-NH2 (staple 2-9; not fully specified; printed as Ac-A-R8-I-L-D-A-2pyr-I-MB-Aib-V-W-NH2) [FP0570c Isomer 1]	–	binding result (full-length beta-catenin [2]): no binding
AXILDAHIXAVW (not fully specified; Ac-A-R8-I-L-D-A-H-I-MB-1NapA-V-W-NH2; carbamate staple R8/MB) [FP0365c Isomer 1]	0.5 to 5	–
Ac-A[R8]ILDA[2Pal]I[MB(4)][1Nal]VW-NH2 (staple 2-9; not fully specified; printed as Ac-A-R8-I-L-D-A-2pyr-I-MB-1NapA-V-W-NH2) [FP0577c Isomer 1]	–	binding result (full-length beta-catenin [2]): no binding
Ac-A[R8]IL[Met(O2)]AHI[MB(5)]RVW-NH2 (staple 2-9) [FP0629c]	0.5 to 5	–
AXILAAHIXRVW (not fully specified; Ac-A-R8-I-L-A-A-H-I-MB-R-V-W-NH2; carbamate staple R8/MB) [FP0407c]	0.5 to 5	–
Ac-A[R8]ILDA[2Pal]I[MB(4)][Phe(4-F)]VW-NH2 (staple 2-9; not fully specified; printed as Ac-A-R8-I-L-D-A-2pyr-I-MB-4FF-V-W-NH2) [FP0576c Isomer 1]	–	binding result (full-length beta-catenin [2]): no binding
Ac-A[R8]ILDA[2Pal]I[MB(4)][Phe(4-F)]VW-NH2 (staple 2-9; not fully specified; printed as Ac-A-R8-I-L-D-A-2pyr-I-MB-4FF-V-W-NH2) [FP0576c Isomer 2]	–	binding result (full-length beta-catenin [2]): no binding
Ac-A[R8]ILDA[2Pal]I[MB(4)][Phe(4-Me)]VW-NH2 (staple 2-9; not fully specified; printed as Ac-A-R8-I-L-D-A-2pyr-I-MB-4MeF-V-W-NH2) [FP0578c Isomer 1]	–	binding result (full-length beta-catenin [2]): no binding
Ac-A[R8]ILDA[4Pal]I[MB(13)]RVW-NH2 (staple 2-9) [FP0538c]	0.5 to 5	–
Ac-A[R8]ILDAHI[MB(10)]SVW-NH2 (staple 2-9) [FP0542c]	0.5 to 5	–
AXALDAHIXRVW (not fully specified; Ac-A-R8-A-L-D-A-H-I-MB-R-V-W-NH2; carbamate staple R8/MB) [FP0405c]	0.5 to 5	–
AXILDAHIXAVW (not fully specified; Ac-A-R8-I-L-D-A-H-I-MB-1NapA-V-W-NH2; carbamate staple R8/MB) [FP0365c Isomer 2]	0.5 to 5	–
Ac-A[R8]ILDAHI[MB(4)]R[αMeL]W-NH2 (staple 2-9) [FP0633c]	0.5 to 5	–
Ac-A[R8]ILDA[2Pal]I[MB(4)][Phe(4-Me)]VW-NH2 (staple 2-9; not fully specified; printed as Ac-A-R8-I-L-D-A-2pyr-I-MB-4MeF-V-W-NH2) [FP0578c Isomer 2]	–	binding result (full-length beta-catenin [2]): no binding
AXILDAHIXRVW (not fully specified; Ac-A-MI-I-L-D-A-H-I-S6-R-V-W-NH2; carbamate staple MI/S6) [FP0507c]	0.5 to 5	–
AXILDAHIXRVW (not fully specified; Ac-A-R5-I-L-D-A-H-I-MH-R-V-W-NH2; amino staple R5/MH) [FP0510a]	0.5 to 5	–
Ac-A[R7]ILDAHI[MD]RVW-NH2 (staple 2-9; not fully specified; printed as Ac-A-R7-I-L-D-A-H-I-MD-R-V-W-NH2; also: amino staple R7/MD (-N(R')-, after CO2 extrusion from carbamate staple)) [FP0495a]	0.5 to 5	–
Ac-A[R8]ILDAHI[MB(4)]RV[αMeW]-NH2 (staple 2-9) [FP0631c]	0.5 to 5	–
Ac-A[R8]ILDAHI[MB]RVW-NH2 (staple 2-9; also: Isomer 1, staple olefin E/Z not assigned, also called FPO217c Isomer 1) [FP0217c Isomer 1]	0.5 to 5	–
AXILDAHIXRVW (not fully specified; Ac-A-MG-I-L-D-A-H-I-ME-R-V-W-NH2; carbamate staple MG/ME) [FP0596c]	0.5 to 5	–
AXILDAHIXRVW (not fully specified; Ac-A-R4-I-L-D-A-H-I-MH-R-V-W-NH2; amino staple R4/MH) [FP0509a]	0.5 to 5	–
Ac-A[R7″]ILDAHI[MA]RVW-NH2 (staple 2-9; not fully specified; printed as Ac-A-R7-I-L-D-A-H-I-MA-R-V-W-NH2) [FP0516a Isomer 2]	0.5 to 5	–
Ac-A[R8]ILDA[2Pal]I[MB(6)][Aib]VW-NH2 (staple 2-9; not fully specified; printed as Ac-A-R8-I-L-D-A-2pyr-I-MB-Aib-V-W-NH2) [FP0570c Isomer 2]	–	binding result (full-length beta-catenin [2]): no binding

From patent publication US11198713B2, “Agents modulating beta-catenin functions and methods thereof” (FOG PHARMACEUTICALS, INC., priority 2017, dated 2021)
